Marks after values point to notes of the source that are not given here.
Tests used:
Format in all cases: cell-based
NaV1.6 = biological target: T1, NaV1.6 (Homo sapiens, UniProt Q9UQD0); assay: Whole-cell patch-clamp electrophysiology in HEK293 cells stably expressing NaV1.6 (HEK-NaV1.6); conditions: for effect on NaV1.6 currents / Peak current density, Nav1.6 (Treatment): HEK-NaV1.6 cells; for effect on NaV1.6 currents: 500 nM peptide vs control; for Peak current density, Nav1.6 (Treatment): mean ± SEM (n)
T1 construct: expressed in transfected cells; host or cells: HEK293 cells stably expressing NaV1.6
Procedure: HEK-NaV1.6 cells were plated at low density on glass cover slips for 3-4 hours and subsequently transferred to the recording chamber. Recordings were performed at room temperature (20-22° C.) after 48 h to thaw them using a MultiClamp 200B and 700B amplifier (Molecular Devices, Sunnyvale, CA). The composition of recording solutions consisted of the following salts; extracellular (mM): 140 NaCl, 3 KCl, 1 MgCl2, 1 CaCl2), 10 HEPES, 10 glucose, pH 7.3; intracellular (mM): 130 CH3O3SCs, 1 EGTA, 10 NaCl, 10 HEPES, pH 7.3. Membrane capacitance and series resistance were estimated by the dial settings on the amplifier and compensated for electronically by 70-75%. Data were acquired at 20 kHz and filtered at 5 kHz prior to digitization and storage. All experimental parameters were controlled by Clampex 9.2 software (Molecular Devices) and interfaced to the electrophysiological equipment using a Digidata 1200 analog-digital interface (Molecular Devices). Voltage-dependent inward currents for HEK-NaV 1.6 cells were evoked by depolarization to test potentials between −100 mV and +60 mV from a holding potential of −70 mV followed by a voltage pre-step pulse of −120 mV (Nar 1.6).
(§1) Current densities were obtained by dividing Na^+ current (INa^+) amplitude by membrane capacitance. Current-voltage relationships were generated by plotting current density as a function of the […].
(§2) Statistics were calculated as mean and standard error of the mean (mean SEM) using Prism 7 (La Jolla, CA). The statistical significance of observed differences among groups was determined by Student's t-test or for two group comparisons significance was tested with unpaired. Electrophysiological data analysis was performed using Clampfit 9 software (Molecular Devices).
To test whether Peptide 1, 3, 7 and 8 had any modulatory effects on NaV 1.6-mediated Na^+ currents, we used whole-cell patch-clamp electrophysiology in HEK293 cells stably expressing NaV1.6 (HEK-NaV1.6) channels; each group was either treated with peptides 1, 3, 7 and 8 (500 nM from a stock solution dissolved in H2O or DMSO) or H2O and 0.1% DMSO alone (control). […] However, peptide 7 potentiates the NaV1.6-mediated transient Na^+ currents (INa+), and were not statistically different compared to control (FIG. 17 A-C and Table 1).

human NaV1.5 channel = biological target: T2, human NaV1.5 channel (Homo sapiens, UniProt Q14524); assay: Whole-cell patch-clamp electrophysiology in HEK293 cells stably expressing NaV1.5 (HEK-NaV1.5); conditions: HEK-NaV1.5 cells, 500 nM peptide vs control
T2 construct: expressed in transfected cells; host or cells: HEK293 cells stably expressing human NaV1.5 (G418 selection)
Procedure: HEK293 cells were maintained in DMEM and F-12 (Invitrogen, Carlsbad, CA), supplemented with 0.05% glucose, 0.5 mM pyruvate, 10% fetal bovine serum, 100 units/ml penicillin, and 100 μg/ml streptomycin (Invitrogen), and incubated at 37° C. with 5% CO2. HEK293 cells stably expressing the human NaV1.5 channel (hereafter referred to as HEK-NaV1.5 cells) were maintained similarly except for the addition of 500 μg/ml G418 (Invitrogen) to maintain stable NaV 1.5 expression. Cells were grown to 80-90% confluence, washed and re-plated at very low density prior to electrophysiological recordings.
as §1, §2
To test whether Peptide 1, 3, 7 and 8 had any modulatory effects on NaV 1.5-mediated Na^+ currents, we used whole-cell patch-clamp electrophysiology in HEK293 cells stably expressing NaV1.5 (HEK-NaV1.5) channels; each group was either treated with peptides 1, 3, 7 and 8 (500 nM from a stock solution dissolved in H2O or DMSO) or H2O and 0.1% DMSO alone (control).

NaV1.7 = biological target: T3, NaV1.7 (Homo sapiens, UniProt Q15858); assay: Patch-clamp electrophysiology of HEK-NaV1.7 stable cells; conditions: HEK-NaV1.7 cells, 500 nM peptide
T3 construct: expressed in transfected cells; host or cells: HEK293 (human embryonic kidney) cells stably expressing NaV1.7
Procedure: HEK-NaV1.7 stable cell lines were plated at low density on glass cover slips for 3-4 hours and subsequently transferred to the recording chamber. Recordings were performed at room temperature (20-22° C.) […] using a MultiClamp 700B amplifier (Molecular Devices, Sunnyvale, CA). The composition of recording solutions consisted of the following salts: extracellular (mM): 140 NaCl, 3 KCl, 1 MgCl2, 1 CaCl2), 10 HEPES, 10 glucose, pH 7.3; intracellular (mM): 130 CH3O3SCs, 1 EGTA, 10 NaCl, 10 HEPES, pH 7.3. Membrane capacitance and series resistance were estimated by the dial settings on the amplifier and compensated for electronically by 70-80%. Data were acquired at 20 kHz and filtered at 5 kHz prior to digitization and storage. All experimental parameters were controlled by Clampex 9.2 software (Molecular Devices) and interfaced to the electrophysiological equipment using a Digidata 1200 analog-digital interface (Molecular Devices). Voltage-dependent inward currents for HEK-NaV1.7 cells were evoked by depolarizations to test potentials between −100 mV and +60 mV from a holding potential of −70 mV followed by a voltage pre-step pulse of −120 mV (NaV1.7). Steady-state (fast) inactivation of NaV channels was measured with a paired-pulse protocol. From the holding potential, cells were stepped to varying test potentials between −120 mv (Nar 1.7) and +20 mV (pre-pulse) prior to a test pulse to −20 mV.
Current densities were obtained by dividing Na+ current (INa) amplitude by membrane capacitance. Current-voltage relationships were generated by plotting current density as a function of the […]. Conductance (GNa) was calculated by the following equation:
GNa=INa/(Vm−Erev) • where INa is the current amplitude at voltage Vm, and Erev is the Na^+ reversal potential.
To test whether given peptides (10 in total, listed below) had modulatory effects on NaV1.7-mediated Na^+ currents, we used patch-clamp electrophysiology of human embryonic kidney cells stably expressing NaV1.7 (HEK-NaV1.7).

T3 sequence (Q15858 whole entry): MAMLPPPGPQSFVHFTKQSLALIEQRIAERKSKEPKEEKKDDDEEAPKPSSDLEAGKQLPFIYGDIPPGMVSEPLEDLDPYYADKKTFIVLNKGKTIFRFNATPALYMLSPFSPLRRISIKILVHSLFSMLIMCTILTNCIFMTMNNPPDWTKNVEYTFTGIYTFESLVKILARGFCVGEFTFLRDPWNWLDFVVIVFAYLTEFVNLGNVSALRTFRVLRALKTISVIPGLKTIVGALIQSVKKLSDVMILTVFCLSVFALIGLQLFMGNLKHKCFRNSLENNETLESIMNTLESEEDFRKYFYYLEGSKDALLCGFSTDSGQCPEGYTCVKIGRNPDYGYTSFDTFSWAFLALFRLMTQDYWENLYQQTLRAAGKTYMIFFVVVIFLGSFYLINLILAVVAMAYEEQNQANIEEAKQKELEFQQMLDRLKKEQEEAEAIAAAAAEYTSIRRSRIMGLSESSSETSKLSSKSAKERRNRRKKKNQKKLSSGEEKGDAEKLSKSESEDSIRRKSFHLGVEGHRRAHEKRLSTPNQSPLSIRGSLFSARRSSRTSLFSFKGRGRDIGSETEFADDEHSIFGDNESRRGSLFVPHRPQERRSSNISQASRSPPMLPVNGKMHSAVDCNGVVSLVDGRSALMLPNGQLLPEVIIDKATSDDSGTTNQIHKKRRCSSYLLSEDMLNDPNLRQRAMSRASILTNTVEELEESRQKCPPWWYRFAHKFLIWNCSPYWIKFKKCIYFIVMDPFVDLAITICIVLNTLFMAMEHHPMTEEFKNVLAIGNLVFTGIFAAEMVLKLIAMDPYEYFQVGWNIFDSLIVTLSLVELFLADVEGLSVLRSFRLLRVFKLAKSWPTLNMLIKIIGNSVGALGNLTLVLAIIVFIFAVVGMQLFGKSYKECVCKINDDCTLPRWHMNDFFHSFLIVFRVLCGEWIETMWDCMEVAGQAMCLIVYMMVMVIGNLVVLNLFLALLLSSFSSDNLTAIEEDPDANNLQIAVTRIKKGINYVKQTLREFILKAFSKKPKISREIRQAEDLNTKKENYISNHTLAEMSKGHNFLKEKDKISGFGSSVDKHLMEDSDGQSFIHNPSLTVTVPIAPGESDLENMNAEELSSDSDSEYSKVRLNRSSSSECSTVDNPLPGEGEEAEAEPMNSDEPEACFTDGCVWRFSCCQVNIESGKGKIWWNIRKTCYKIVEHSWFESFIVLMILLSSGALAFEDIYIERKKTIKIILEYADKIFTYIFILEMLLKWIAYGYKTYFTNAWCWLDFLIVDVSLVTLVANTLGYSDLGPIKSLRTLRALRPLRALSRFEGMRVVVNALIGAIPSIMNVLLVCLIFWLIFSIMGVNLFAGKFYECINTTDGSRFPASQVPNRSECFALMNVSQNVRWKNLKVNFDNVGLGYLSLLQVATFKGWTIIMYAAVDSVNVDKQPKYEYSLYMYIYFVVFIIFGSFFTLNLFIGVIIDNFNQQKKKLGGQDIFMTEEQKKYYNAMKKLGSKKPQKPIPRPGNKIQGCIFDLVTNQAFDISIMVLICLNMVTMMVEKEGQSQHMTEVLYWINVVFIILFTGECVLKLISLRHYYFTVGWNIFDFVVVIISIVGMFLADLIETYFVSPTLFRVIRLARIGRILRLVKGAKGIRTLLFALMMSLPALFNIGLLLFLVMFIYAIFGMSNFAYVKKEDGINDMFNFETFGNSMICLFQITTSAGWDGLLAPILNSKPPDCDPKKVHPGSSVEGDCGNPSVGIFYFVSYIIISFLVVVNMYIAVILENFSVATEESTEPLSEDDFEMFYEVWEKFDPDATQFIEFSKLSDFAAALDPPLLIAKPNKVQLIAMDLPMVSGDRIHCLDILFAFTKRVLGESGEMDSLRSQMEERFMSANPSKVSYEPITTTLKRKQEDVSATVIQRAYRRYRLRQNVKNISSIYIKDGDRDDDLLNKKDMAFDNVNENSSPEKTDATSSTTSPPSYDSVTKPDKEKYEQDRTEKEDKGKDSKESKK
T2 sequence (Q14524 whole entry): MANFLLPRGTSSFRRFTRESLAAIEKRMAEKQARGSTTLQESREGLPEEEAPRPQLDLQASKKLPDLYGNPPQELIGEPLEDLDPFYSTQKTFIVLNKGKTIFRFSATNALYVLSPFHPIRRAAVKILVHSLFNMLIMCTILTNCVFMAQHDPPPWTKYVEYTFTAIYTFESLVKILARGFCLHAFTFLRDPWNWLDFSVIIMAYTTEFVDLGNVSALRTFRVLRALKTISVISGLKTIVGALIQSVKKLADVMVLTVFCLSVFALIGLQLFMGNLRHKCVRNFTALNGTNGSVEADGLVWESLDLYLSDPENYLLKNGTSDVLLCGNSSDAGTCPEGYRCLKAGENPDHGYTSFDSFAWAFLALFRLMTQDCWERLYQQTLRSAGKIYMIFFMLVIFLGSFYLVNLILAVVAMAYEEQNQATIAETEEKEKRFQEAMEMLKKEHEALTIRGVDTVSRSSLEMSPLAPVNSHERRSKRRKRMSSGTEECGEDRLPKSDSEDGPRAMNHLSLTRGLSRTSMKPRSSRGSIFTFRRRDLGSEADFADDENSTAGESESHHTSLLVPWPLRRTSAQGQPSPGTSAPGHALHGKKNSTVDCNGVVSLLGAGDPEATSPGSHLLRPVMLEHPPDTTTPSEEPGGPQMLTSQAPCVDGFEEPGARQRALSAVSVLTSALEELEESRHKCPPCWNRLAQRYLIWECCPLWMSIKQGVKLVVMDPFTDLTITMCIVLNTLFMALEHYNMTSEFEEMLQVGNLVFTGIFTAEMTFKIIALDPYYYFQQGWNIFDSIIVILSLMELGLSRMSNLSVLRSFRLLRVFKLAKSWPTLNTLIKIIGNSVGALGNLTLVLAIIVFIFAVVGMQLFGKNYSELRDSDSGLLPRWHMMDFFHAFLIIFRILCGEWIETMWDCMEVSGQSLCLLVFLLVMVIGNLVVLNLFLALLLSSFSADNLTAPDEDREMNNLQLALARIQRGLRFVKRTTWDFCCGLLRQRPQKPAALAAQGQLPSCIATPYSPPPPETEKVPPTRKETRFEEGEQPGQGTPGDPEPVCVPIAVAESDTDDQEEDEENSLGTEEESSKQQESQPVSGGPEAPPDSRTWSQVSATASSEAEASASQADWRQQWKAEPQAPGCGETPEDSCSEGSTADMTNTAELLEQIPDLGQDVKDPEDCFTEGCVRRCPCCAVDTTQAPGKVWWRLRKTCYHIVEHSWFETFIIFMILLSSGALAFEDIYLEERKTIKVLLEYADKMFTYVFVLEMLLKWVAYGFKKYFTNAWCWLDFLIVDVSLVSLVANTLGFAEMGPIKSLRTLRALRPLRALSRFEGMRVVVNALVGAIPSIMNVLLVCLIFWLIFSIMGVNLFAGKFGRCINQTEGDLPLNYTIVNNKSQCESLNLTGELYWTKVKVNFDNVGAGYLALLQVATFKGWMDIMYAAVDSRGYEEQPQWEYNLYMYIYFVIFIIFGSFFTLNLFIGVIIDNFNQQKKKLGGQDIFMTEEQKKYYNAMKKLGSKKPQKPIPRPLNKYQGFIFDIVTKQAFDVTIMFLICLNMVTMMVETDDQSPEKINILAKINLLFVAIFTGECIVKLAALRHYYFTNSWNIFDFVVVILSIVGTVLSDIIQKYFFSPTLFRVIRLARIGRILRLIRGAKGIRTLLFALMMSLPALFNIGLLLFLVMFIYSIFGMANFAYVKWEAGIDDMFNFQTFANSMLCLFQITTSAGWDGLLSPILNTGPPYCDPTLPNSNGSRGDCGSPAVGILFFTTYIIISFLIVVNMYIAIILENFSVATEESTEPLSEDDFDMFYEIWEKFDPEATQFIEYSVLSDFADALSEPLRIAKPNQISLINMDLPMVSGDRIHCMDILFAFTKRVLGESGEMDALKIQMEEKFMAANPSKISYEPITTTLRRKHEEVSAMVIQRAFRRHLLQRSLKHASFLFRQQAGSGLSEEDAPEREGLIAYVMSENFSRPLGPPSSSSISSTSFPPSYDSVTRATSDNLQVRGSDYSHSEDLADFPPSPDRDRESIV

Sequence	effect on NaV1.6 currents (NaV1.6)	effect on NaV1.6 currents (NaV1.6; listed as peptide 1)	Peak current density, Nav1.6 (Treatment) (NaV1.6; 500 nM peptide)	effect on NaV1.5 currents (human NaV1.5 channel)	blockage of the NaV1.7 sodium channel (NaV1.7)	effect on NaV1.6 currents (NaV1.6; listed as peptide 3)	peak current density, treatment (text of b104) (NaV1.6; 500 nM peptide, control 194.86, n=8, treatment n=7, sentence cites FIG. 14A-C)	effect on NaV1.6 currents (NaV1.6; listed as peptide 8)
SDEIPATFGGGTDAGL (Synthetic Peptide 1)	suppressed	suppresses	25.65 ± 5.2 (13)^a	no effects	substantial blockage			
DCLGLFRKCIPDMLKCCRFNLVCSRLHKWCKYVF (Synthetic Peptide 3)	suppressed		25.32 ± 4.1 (6)^b	suppressed	substantial blockage	suppresses		
DCLGFMRKCLSTTDLDDDWNCCRPNLVCSRTHKWCKYVF (Synthetic Peptide 8)	no effects		59.75 ± 5.4 (6)^NS	no effects	substantial blockage		104.78	no statistically significant effect
IGEKVTIRLITSTNINDDFNIYQQKPGEPPKLL (Synthetic Peptide 7)	potentiates		121.14 ± 16.6 (10)^c	no effects	substantial blockage			
